Entries after “also recorded” stand apart in the source; their conditions may differ.
Tests used:
[1] = Blood serum absorption rate after delivery to the skin; assay type: in vivo; settings: skin administration compared to i.v., s.c. or i.d.; FIG. 14
[2] = In vivo near infrared imaging of lymphatic delivery after administration to the skin; parameters: species or system rats; settings: fluorescently tagged, needle array placed dorsally, FIG. 11 and 12
Description: The ability to deliver the protein therapeutic Etanercept directly to the lymphatic system via administration to the skin was tested. Etanercept was fluorescently tagged for in vivo visualization using near infrared light as previous described, see Sevick-Muraca et al., J. Clin Invest., 124(3), 905-914 (2014), which is incorporated by reference herein for its teachings thereof. Etanercept was administered to the skin of rats by μlacing a delivery device comprising an array of needles dorsally on the rats.

[3] = Biodistribution across tissue types after delivery to the skin; assay type: in vivo, rats; settings: skin delivery compared to i.v., s.c. or i.d., FIG. 13
Description: The biodistribution of etanercept across multiple tissues types following delivery was investigated.

## Etanercept
[1]
  blood serum absorption rate: approximately the same
[2]
  lymphatic uptake and distribution to lymph nodes: uptake by the lymphatic vasculature and subsequent distribution to primary and secondary lymph node tissues
[2]; listed as Etanercept
  lymphatic uptake and distribution to lymph nodes: delivery directly to the lymphatic vasculature and lymph node tissues; also recorded: delivery to the axillary and mandibular lymph nodes
[3]
  levels within the axillary and inguinal lymph nodes: much higher levels
[3]; listed as Etanercept
  levels within the axillary and inguinal lymph nodes: increased delivery to the lymph nodes
